{"source": "the Human Domainome abundance scans (Beltran et al. 2025)", "parents": {"B1": {"name": "SH3 and PX domain-containing protein 2B, residues 155 to 209; numbered along this chain, A1X283 (parent)", "chain": "EQYVVVANYQKQESSEISLSVGQVVDIIEKNESGWWFVSTAEEQGWVPATCLEGQ"}}, "note": "± gives the uncertainty stated by the source.", "data": [{"variants_of": "B1", "experiment": "abundance fitness (aPCA) (normalised: wild type 0, dead -1); higher = more abundant; growth selection in yeast, the domain comes from the species named", "conditions": "Homo sapiens", "values": [{"variant": "EQYVVVANYQKQESSEISLSVGQEVDIIEKNESGWWFVSTAEEQGWVPATCLEGQ", "abundance fitness": "0.027 ± 0.087"}, {"variant": "EQYVVVANYQKQESSEISLSVGQFVDIIEKNESGWWFVSTAEEQGWVPATCLEGQ", "abundance fitness": "-0.239 ± 0.13"}, {"variant": "EQYVVVANYQKQESSEISLSVGQGVDIIEKNESGWWFVSTAEEQGWVPATCLEGQ", "abundance fitness": "-0.157 ± 0.074"}, {"variant": "EQYVVVANYQKQESSEISLSVGQHVDIIEKNESGWWFVSTAEEQGWVPATCLEGQ", "abundance fitness": "-0.284 ± 0.17"}, {"variant": "EQYVVVANYQKQESSEISLSVGQIVDIIEKNESGWWFVSTAEEQGWVPATCLEGQ", "abundance fitness": "-0.026 ± 0.19"}, {"variant": "EQYVVVANYQKQESSEISLSVGQKVDIIEKNESGWWFVSTAEEQGWVPATCLEGQ", "abundance fitness": "0.069 ± 0.1"}, {"variant": "EQYVVVANYQKQESSEISLSVGQLVDIIEKNESGWWFVSTAEEQGWVPATCLEGQ", "abundance fitness": "-0.128 ± 0.077"}, {"variant": "EQYVVVANYQKQESSEISLSVGQMVDIIEKNESGWWFVSTAEEQGWVPATCLEGQ", "abundance fitness": "-0.137 ± 0.1"}, {"variant": "EQYVVVANYQKQESSEISLSVGQNVDIIEKNESGWWFVSTAEEQGWVPATCLEGQ", "abundance fitness": "0.001 ± 0.12"}, {"variant": "EQYVVVANYQKQESSEISLSVGQPVDIIEKNESGWWFVSTAEEQGWVPATCLEGQ", "abundance fitness": "-0.135 ± 0.077"}, {"variant": "EQYVVVANYQKQESSEISLSVGQQVDIIEKNESGWWFVSTAEEQGWVPATCLEGQ", "abundance fitness": "-0.215 ± 0.11"}, {"variant": "EQYVVVANYQKQESSEISLSVGQRVDIIEKNESGWWFVSTAEEQGWVPATCLEGQ", "abundance fitness": "-0.135 ± 0.071"}, {"variant": "EQYVVVANYQKQESSEISLSVGQSVDIIEKNESGWWFVSTAEEQGWVPATCLEGQ", "abundance fitness": "-0.071 ± 0.077"}, {"variant": "EQYVVVANYQKQESSEISLSVGQTVDIIEKNESGWWFVSTAEEQGWVPATCLEGQ", "abundance fitness": "-0.109 ± 0.089"}, {"variant": "EQYVVVANYQKQESSEISLSVGQWVDIIEKNESGWWFVSTAEEQGWVPATCLEGQ", "abundance fitness": "-0.075 ± 0.099"}, {"variant": "EQYVVVANYQKQESSEISLSVGQYVDIIEKNESGWWFVSTAEEQGWVPATCLEGQ", "abundance fitness": "-0.263 ± 0.17"}, {"variant": "EQYVVVANYQKQESSEISLSVGQVCDIIEKNESGWWFVSTAEEQGWVPATCLEGQ", "abundance fitness": "-0.393 ± 0.21"}, {"variant": "EQYVVVANYQKQESSEISLSVGQVEDIIEKNESGWWFVSTAEEQGWVPATCLEGQ", "abundance fitness": "-0.752 ± 0.12"}, {"variant": "EQYVVVANYQKQESSEISLSVGQVFDIIEKNESGWWFVSTAEEQGWVPATCLEGQ", "abundance fitness": "-0.964 ± 0.42"}, {"variant": "EQYVVVANYQKQESSEISLSVGQVGDIIEKNESGWWFVSTAEEQGWVPATCLEGQ", "abundance fitness": "-0.878 ± 0.098"}, {"variant": "EQYVVVANYQKQESSEISLSVGQVHDIIEKNESGWWFVSTAEEQGWVPATCLEGQ", "abundance fitness": "-0.656 ± 0.18"}, {"variant": "EQYVVVANYQKQESSEISLSVGQVIDIIEKNESGWWFVSTAEEQGWVPATCLEGQ", "abundance fitness": "-0.317 ± 0.17"}, {"variant": "EQYVVVANYQKQESSEISLSVGQVKDIIEKNESGWWFVSTAEEQGWVPATCLEGQ", "abundance fitness": "-0.902 ± 0.21"}, {"variant": "EQYVVVANYQKQESSEISLSVGQVLDIIEKNESGWWFVSTAEEQGWVPATCLEGQ", "abundance fitness": "-0.378 ± 0.083"}, {"variant": "EQYVVVANYQKQESSEISLSVGQVMDIIEKNESGWWFVSTAEEQGWVPATCLEGQ", "abundance fitness": "-0.801 ± 0.16"}, {"variant": "EQYVVVANYQKQESSEISLSVGQVNDIIEKNESGWWFVSTAEEQGWVPATCLEGQ", "abundance fitness": "-0.95 ± 0.41"}, {"variant": "EQYVVVANYQKQESSEISLSVGQVPDIIEKNESGWWFVSTAEEQGWVPATCLEGQ", "abundance fitness": "-0.825 ± 0.16"}, {"variant": "EQYVVVANYQKQESSEISLSVGQVRDIIEKNESGWWFVSTAEEQGWVPATCLEGQ", "abundance fitness": "-0.945 ± 0.1"}, {"variant": "EQYVVVANYQKQESSEISLSVGQVSDIIEKNESGWWFVSTAEEQGWVPATCLEGQ", "abundance fitness": "-0.95 ± 0.17"}, {"variant": "EQYVVVANYQKQESSEISLSVGQVTDIIEKNESGWWFVSTAEEQGWVPATCLEGQ", "abundance fitness": "-0.513 ± 0.15"}, {"variant": "EQYVVVANYQKQESSEISLSVGQVWDIIEKNESGWWFVSTAEEQGWVPATCLEGQ", "abundance fitness": "-0.983 ± 0.18"}, {"variant": "EQYVVVANYQKQESSEISLSVGQVVAIIEKNESGWWFVSTAEEQGWVPATCLEGQ", "abundance fitness": "-0.054 ± 0.084"}, {"variant": "EQYVVVANYQKQESSEISLSVGQVVCIIEKNESGWWFVSTAEEQGWVPATCLEGQ", "abundance fitness": "-0.269 ± 0.15"}, {"variant": "EQYVVVANYQKQESSEISLSVGQVVEIIEKNESGWWFVSTAEEQGWVPATCLEGQ", "abundance fitness": "-0.112 ± 0.11"}, {"variant": "EQYVVVANYQKQESSEISLSVGQVVFIIEKNESGWWFVSTAEEQGWVPATCLEGQ", "abundance fitness": "-0.262 ± 0.2"}, {"variant": "EQYVVVANYQKQESSEISLSVGQVVGIIEKNESGWWFVSTAEEQGWVPATCLEGQ", "abundance fitness": "-0.126 ± 0.067"}, {"variant": "EQYVVVANYQKQESSEISLSVGQVVHIIEKNESGWWFVSTAEEQGWVPATCLEGQ", "abundance fitness": "-0.214 ± 0.29"}, {"variant": "EQYVVVANYQKQESSEISLSVGQVVIIIEKNESGWWFVSTAEEQGWVPATCLEGQ", "abundance fitness": "-0.508 ± 0.22"}, {"variant": "EQYVVVANYQKQESSEISLSVGQVVKIIEKNESGWWFVSTAEEQGWVPATCLEGQ", "abundance fitness": "0.028 ± 0.13"}, {"variant": "EQYVVVANYQKQESSEISLSVGQVVLIIEKNESGWWFVSTAEEQGWVPATCLEGQ", "abundance fitness": "-0.078 ± 0.093"}, {"variant": "EQYVVVANYQKQESSEISLSVGQVVMIIEKNESGWWFVSTAEEQGWVPATCLEGQ", "abundance fitness": "-0.134 ± 0.24"}, {"variant": "EQYVVVANYQKQESSEISLSVGQVVNIIEKNESGWWFVSTAEEQGWVPATCLEGQ", "abundance fitness": "0.146 ± 0.14"}, {"variant": "EQYVVVANYQKQESSEISLSVGQVVPIIEKNESGWWFVSTAEEQGWVPATCLEGQ", "abundance fitness": "-0.928 ± 0.27"}, {"variant": "EQYVVVANYQKQESSEISLSVGQVVQIIEKNESGWWFVSTAEEQGWVPATCLEGQ", "abundance fitness": "-0.052 ± 0.22"}, {"variant": "EQYVVVANYQKQESSEISLSVGQVVRIIEKNESGWWFVSTAEEQGWVPATCLEGQ", "abundance fitness": "-0.103 ± 0.068"}, {"variant": "EQYVVVANYQKQESSEISLSVGQVVSIIEKNESGWWFVSTAEEQGWVPATCLEGQ", "abundance fitness": "-0.122 ± 0.096"}, {"variant": "EQYVVVANYQKQESSEISLSVGQVVTIIEKNESGWWFVSTAEEQGWVPATCLEGQ", "abundance fitness": "-0.109 ± 0.12"}, {"variant": "EQYVVVANYQKQESSEISLSVGQVVVIIEKNESGWWFVSTAEEQGWVPATCLEGQ", "abundance fitness": "-0.179 ± 0.074"}]}]}
